# Test results as given in patent US20160075789A1 (EDIMER PHARMACEUTICALS, published 2016).
# T1: Fc-APRIL (UniProt O75888 105-250, limits assumed)
# T1 construct: also called control protein Fc-APRIL; not shown: Fc portion; not described for this construct
# T1 sequence (looked up): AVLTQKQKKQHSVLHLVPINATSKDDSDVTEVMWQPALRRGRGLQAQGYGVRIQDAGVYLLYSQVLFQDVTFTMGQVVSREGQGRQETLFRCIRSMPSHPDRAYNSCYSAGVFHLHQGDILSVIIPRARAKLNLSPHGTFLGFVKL
# B1: mAbEDA1-EctoD3 (antibody, mouse IgG1, V domains shown)
# VH: QVQLHQSGAELARPGASVKLSCKASGYTFTSYGISWVKQRTGQGLEWIGEVYPRSGDTYYHDYFEGKATLTADKSSSTAYMELRSLTSEDSAVYFCARGDYADVWGTGTTVTVSS
# VL: DIVLTQSPASLAVSLGQRATISCRASKSVSTFGNSYMLWYQQKPGQPPKLLIYLASNLESGVPARFSGSGSGTDFTLNIHPVEEEDAATYYCQNSRELPYTFGGGTKLEIKR
# notes: also called EctoD3-biotin; EctoD3-biot
# Molecular target: T1, Fc-APRIL
# Experiment: western blot under reducing conditions
binder,measurement,value
B1,binding result,no binding
